From paper PMC4189725 come the findings set out here.

For this assay, the target named is CD40-FasL. The experiment in a line: SEC; gel filtration (Superdex 200) of CD40-FasL conditioned medium; fractions analysed by Western blot (anti FasL) and CD40 ELISA.

CD40-FasL: the stoichiometry N (as a rule, the number of molecules, sites or subunits per partner or assembly) amounted to 6.
